For one substance, beta-galactosidase activity (BACTH) (units (1000x the slope of OD420)) and beta-galactosidase activity (BACTH) results are on record in publication PMC11709261.

Like-named read-outs stand apart in the source and are kept apart here.

Test in all cases: two-hybrid; bacterial adenylate cyclase two-hybrid (BACTH) in E. coli BTH101 (cya) or derivatives (ΔdsbA AP58, ΔdjlA AP63, rcsB::tet EAW1, rcsC::tet EAW2, rcsF::cat EAW4); proteins fused at their C-terminus to T18 or T25; some sets with DjlA or DjlA variants co-expressed downstream of IgaA-T18; overnight growth in LB with 0.5 mM IPTG at 30°C; beta-galactosidase (ONPG, OD420 kinetics at 28°C), plotted relative to IgaA/RcsD

Experiment [1] has as its target RcsD (E. coli) (UniProt P39838).
UniProt P39838, sequence (P39838 whole entry): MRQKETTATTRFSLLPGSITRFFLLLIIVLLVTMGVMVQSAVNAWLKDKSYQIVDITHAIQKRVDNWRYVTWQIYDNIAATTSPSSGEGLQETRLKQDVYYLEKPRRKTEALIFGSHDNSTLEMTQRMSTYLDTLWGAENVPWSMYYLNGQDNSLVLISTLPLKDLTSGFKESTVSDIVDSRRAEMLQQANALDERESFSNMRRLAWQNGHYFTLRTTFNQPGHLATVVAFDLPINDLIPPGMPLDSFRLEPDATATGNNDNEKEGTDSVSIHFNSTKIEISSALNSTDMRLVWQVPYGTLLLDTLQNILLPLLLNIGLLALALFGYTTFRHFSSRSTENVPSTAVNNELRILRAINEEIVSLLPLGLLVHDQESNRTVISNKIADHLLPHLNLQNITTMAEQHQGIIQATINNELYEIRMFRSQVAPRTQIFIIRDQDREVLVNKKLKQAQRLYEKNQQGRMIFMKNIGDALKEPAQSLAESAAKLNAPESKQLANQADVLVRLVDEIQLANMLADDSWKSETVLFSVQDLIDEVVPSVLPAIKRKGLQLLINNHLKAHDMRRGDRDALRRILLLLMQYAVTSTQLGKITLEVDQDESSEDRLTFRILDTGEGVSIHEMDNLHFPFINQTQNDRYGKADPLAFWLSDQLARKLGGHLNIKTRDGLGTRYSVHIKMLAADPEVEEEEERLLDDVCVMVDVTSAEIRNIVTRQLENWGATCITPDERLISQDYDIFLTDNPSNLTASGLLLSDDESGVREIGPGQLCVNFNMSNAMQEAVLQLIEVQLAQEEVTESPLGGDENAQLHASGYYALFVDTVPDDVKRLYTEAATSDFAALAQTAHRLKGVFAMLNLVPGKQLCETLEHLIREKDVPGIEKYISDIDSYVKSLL
The target is the same in experiment [2]. This is another data set of the same source.
The target is the same in experiment [3]. This is another data set of the same source.
Experiment [4] has the same target. This is another data set of the same source.
The target is the same in experiment [5]. This is another data set of the same source.
For experiment [6] the target is unchanged. The source holds these as a separate data set.

Take IgaA (natural protein): the beta-galactosidase activity (BACTH) (units (1000x the slope of OD420)) came out at 577 in the experiment with RcsD (E. coli) [1]; 578 in the experiment with RcsD (E. coli) [2]; 490 in the experiment with RcsD (E. coli) [3]; 545 in the experiment with RcsD (E. coli) [4]; 580 with RcsD (E. coli) [5]; 569 with RcsD (E. coli) [6]. In addition, the beta-galactosidase activity (BACTH) with RcsD (E. coli) [4] was 533 units.
